B1: 重组抗体24G8 (antibody, V domains shown)
VH: EVQLVESGGGLVKPGGSLRLSCAASGFTFSSYSMNWVRQAPGKGLEWVSSISSSSSFIYYADSVKGRFTISRDNAKNSLYLQMNSLRAEDTAVYYCAREVHVDTAMDAYFDYWGQGTLVTVSS
VL: DIQMTQSPSSLSASVGDRVTITCRASQTISSYLNWYQQKPGKAPKLLIFAASSLQSGVPSRFSGSGSGTDFTLTISSLQPEDFATYYCQQSYSNPPLTFGGGTKVEIE
notes: also called 24G8-Biotin
B2: 重组抗体8B4 (antibody, V domains shown)
VH: EVQLVQSGAEVKKPGSSVKVSCKASGGTFSSFSISWVRQAPGQGLEWMGRIIPVLGIANYAQEVQGRVTITADKSTSTAYMELSSLRSEDTAVYFCTTDRFVEPATGPFFDYWGQGTLVTVSS
VL: EIVMTQSPATLSVSPGERATLSCRASQSVSSNLAWYQQKPGQAPRLLIYGASTRATGIPARFSGSGSGTEFTLTISSLQSEDFAVYYCQQYSNWLTFGGGTKVEIK
notes: also called 8B4-Biotin

What was measured:
[1] = molecular target: S1RBD-mFc (SARS-CoV-2 S1蛋白RBD与mFc的融合蛋白) (SARS-CoV-2)
[2] = molecular target: S1RBD-his (SARS-CoV-2 S1蛋白RBD与His的融合蛋白) (SARS-CoV-2); experiment: BLI (Octet QKe), antibody captured on AHC sensor, S1RBD-His in solution, 1:1 fit
MERS-S1 = molecular target: T1, MERS-S1 (MERS-CoV, UniProt K9N5Q8 18-725); experiment: ELISA
T1 construct: domain: S1

SARS-S1 = molecular target: T2, SARS-S1 (SARS-CoV, UniProt P59594 14-667); experiment: ELISA
T2 construct: domain: S1

Binder | IC50 [1] | Kd [2] | koff [2] | kon [2] | binding result (MERS-S1) | binding result (SARS-S1)
B1 | 11.4 nM | 1.08 nM | 0.000264 s⁻¹ | 244000 M⁻¹ s⁻¹ |  | 
B2 | 23.1 nM | 7.7 nM | 0.00157 s⁻¹ | 204000 M⁻¹ s⁻¹ | no binding | no binding
